Measured values: publication PMC9482650, “Quantitative fragmentomics allow affinity mapping of interactomes” (Nature Communications, 2022)

How the values were obtained:
Assay in all cases: holdup assay
Set-up in all cases: key: below the threshold = too weak to quantify, mostly under pKd 3.1 to 4
APBA1_1, Q02410 = biological target: T1, APBA1_1, Q02410
T1 sequence (Q02410 651-752, limits assumed, looked up): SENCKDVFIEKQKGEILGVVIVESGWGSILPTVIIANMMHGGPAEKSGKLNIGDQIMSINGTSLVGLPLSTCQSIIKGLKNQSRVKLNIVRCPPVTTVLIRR

ARHGAP21, Q5T5U3 = biological target: T2, ARHGAP21, Q5T5U3
T2 sequence (Q5T5U3 45-169, limits assumed, looked up): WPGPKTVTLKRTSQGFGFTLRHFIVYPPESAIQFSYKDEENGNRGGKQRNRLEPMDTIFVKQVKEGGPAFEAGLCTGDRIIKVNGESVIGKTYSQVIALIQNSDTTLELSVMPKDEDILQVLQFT

ARHGEF12, Q9NZN5-2 = biological target: ARHGEF12, Q9NZN5-2
DFNB31_1, Q9P202 = biological target: T3, DFNB31_1, Q9P202
T3 sequence (Q9P202 135-233, limits assumed, looked up): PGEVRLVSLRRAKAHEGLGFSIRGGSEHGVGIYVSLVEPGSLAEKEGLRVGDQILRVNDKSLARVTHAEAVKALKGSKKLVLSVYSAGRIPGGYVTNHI

DLG1_1, Q12959 = biological target: DLG1_1, Q12959
DLG3_1, Q92796 = biological target: T4, DLG3_1, Q92796
T4 sequence (Q92796 125-227, limits assumed, looked up): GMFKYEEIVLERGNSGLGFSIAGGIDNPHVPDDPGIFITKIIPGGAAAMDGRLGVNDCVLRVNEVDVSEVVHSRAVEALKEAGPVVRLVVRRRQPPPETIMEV

DLG3_3, Q92796 = biological target: T5, DLG3_3, Q92796
T5 sequence (Q92796 374-475, limits assumed, looked up): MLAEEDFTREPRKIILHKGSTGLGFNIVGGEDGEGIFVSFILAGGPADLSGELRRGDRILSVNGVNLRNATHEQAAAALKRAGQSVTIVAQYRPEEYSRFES

GORASP1, Q9BQQ3 = biological target: GORASP1, Q9BQQ3
GORASP2, Q9H8Y8 = biological target: GORASP2, Q9H8Y8
HTRA3, P83110 = biological target: T6, HTRA3, P83110
T6 sequence (P83110 354-453, limits assumed, looked up): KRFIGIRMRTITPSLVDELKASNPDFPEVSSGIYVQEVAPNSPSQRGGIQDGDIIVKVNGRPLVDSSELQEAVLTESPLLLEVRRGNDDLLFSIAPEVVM

HTRA4, P83105 = biological target: T7, HTRA4, P83105
T7 sequence (P83105 378-476, limits assumed, looked up): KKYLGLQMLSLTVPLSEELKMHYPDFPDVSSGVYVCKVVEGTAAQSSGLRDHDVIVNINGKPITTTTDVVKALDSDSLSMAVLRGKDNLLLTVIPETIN

LIMK2, P53671 = biological target: LIMK2, P53671
LNX1_1, Q8TBB1 = biological target: LNX1_1, Q8TBB1
LNX1_3, Q8TBB1 = biological target: LNX1_3, Q8TBB1
MAGI1_1, Q96QZ7 = biological target: MAGI1_1, Q96QZ7
MAGI2_6, Q86UL8 = biological target: MAGI2_6, Q86UL8
MPDZ_5, O75970 = biological target: T8, MPDZ_5, O75970
T8 sequence (O75970 695-796, limits assumed, looked up): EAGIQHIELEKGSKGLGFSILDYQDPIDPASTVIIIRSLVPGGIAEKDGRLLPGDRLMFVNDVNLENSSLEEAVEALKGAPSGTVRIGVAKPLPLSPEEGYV

MPP6, Q9NZW5 = biological target: T9, MPP6, Q9NZW5
T9 sequence (Q9NZW5 125-219, limits assumed, looked up): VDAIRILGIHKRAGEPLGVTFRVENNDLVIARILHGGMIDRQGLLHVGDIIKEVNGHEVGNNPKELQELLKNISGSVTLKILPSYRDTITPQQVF

NHERF3_3, Q5T2W1 = biological target: T10, NHERF3_3, Q5T2W1
T10 sequence (Q5T2W1 238-333, limits assumed, looked up): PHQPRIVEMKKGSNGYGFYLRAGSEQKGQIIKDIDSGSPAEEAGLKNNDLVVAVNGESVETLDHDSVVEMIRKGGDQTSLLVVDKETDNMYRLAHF

PCLO, Q9Y6V0 = biological target: T11, PCLO, Q9Y6V0
T11 sequence (Q9Y6V0 4491-4600, limits assumed, looked up): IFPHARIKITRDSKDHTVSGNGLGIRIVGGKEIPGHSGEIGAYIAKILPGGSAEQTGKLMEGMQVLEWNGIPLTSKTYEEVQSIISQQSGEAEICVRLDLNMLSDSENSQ

PDZRN4_1, Q6ZMN7 = biological target: PDZRN4_1, Q6ZMN7
PTPN3, P26045 = biological target: PTPN3, P26045
RHPN1, Q8TCX5 = biological target: T12, RHPN1, Q8TCX5
T12 sequence (Q8TCX5 508-602, limits assumed, looked up): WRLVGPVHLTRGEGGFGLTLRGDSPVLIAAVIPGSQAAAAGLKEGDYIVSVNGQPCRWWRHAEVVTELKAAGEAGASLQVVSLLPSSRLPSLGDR

TJP3_3, O95049 = biological target: T13, TJP3_3, O95049
T13 sequence (O95049 375-456, limits assumed, looked up): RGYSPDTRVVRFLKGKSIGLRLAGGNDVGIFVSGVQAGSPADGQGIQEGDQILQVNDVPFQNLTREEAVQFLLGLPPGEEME

[1] = plain residues with an end cap or a label only (N-terminal biotin on a linker: ado-ado)
[2] = modified: phospho on T at position -2 from the C-terminal residue

ARHGEF12, Q9NZN5-2, sequence (Q9NZN5 other isoform, or with tags, fused parts or gaps): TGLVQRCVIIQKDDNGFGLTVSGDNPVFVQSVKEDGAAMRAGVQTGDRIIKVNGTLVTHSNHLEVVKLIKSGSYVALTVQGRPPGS
GORASP1, Q9BQQ3, sequence (Q9BQQ3 1-208): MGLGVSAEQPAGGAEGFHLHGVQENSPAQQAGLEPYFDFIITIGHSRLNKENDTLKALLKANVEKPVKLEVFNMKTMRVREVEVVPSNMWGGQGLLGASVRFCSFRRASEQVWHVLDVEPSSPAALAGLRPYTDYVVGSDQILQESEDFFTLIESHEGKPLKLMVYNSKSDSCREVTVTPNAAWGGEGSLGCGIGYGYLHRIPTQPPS
LNX1_3, Q8TBB1, sequence (Q8TBB1 500-596): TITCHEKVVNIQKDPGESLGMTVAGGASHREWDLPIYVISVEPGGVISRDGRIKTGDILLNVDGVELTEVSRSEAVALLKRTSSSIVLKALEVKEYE
MAGI2_6, Q86UL8, sequence (Q86UL8 1141-1229): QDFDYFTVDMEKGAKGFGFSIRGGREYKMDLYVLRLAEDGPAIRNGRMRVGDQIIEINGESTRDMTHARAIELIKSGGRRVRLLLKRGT
PTPN3, P26045, sequence (P26045 505-587): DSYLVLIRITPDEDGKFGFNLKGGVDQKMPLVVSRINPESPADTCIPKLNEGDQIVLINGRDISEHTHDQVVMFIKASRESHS
MAGI1_1, Q96QZ7, sequence (Q96QZ7 1-106): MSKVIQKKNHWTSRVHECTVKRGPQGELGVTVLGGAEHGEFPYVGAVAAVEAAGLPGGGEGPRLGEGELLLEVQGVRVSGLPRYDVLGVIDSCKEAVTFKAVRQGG
PDZRN4_1, Q6ZMN7, sequence (Q6ZMN7 213-318): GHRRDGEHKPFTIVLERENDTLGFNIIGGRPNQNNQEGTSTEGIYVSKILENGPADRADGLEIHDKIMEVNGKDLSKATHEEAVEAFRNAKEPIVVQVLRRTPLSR
LIMK2, P53671, sequence (P53671 143-248): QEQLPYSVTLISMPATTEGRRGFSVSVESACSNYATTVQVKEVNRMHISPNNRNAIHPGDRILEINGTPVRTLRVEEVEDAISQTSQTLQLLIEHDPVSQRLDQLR
LNX1_1, Q8TBB1, sequence (Q8TBB1 261-371): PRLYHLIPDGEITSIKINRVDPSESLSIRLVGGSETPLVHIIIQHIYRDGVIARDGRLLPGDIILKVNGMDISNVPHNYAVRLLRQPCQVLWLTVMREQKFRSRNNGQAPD

EDGESWEYQI [TRPV6, Q9H1D0]
pKd (APBA1_1, Q02410; [1]): below the threshold
pKd (ARHGAP21, Q5T5U3; [1]): 3.57
pKd (ARHGEF12, Q9NZN5-2; [1]): below the threshold
pKd (DFNB31_1, Q9P202; [1]): below the threshold
pKd (DLG1_1, Q12959; [1]): below the threshold
pKd (DLG3_1, Q92796; [1]): below the threshold
pKd (DLG3_3, Q92796; [1]): below the threshold
pKd (GORASP1, Q9BQQ3; [1]): 4.63
pKd (GORASP2, Q9H8Y8; [1]): 4.22
pKd (HTRA3, P83110; [1]): below the threshold
pKd (HTRA4, P83105; [1]): below the threshold
pKd (LIMK2, P53671; [1]): below the threshold
pKd (LNX1_1, Q8TBB1; [1]): below the threshold
pKd (LNX1_3, Q8TBB1; [1]): 3.52
pKd (MAGI1_1, Q96QZ7; [1]): below the threshold
pKd (MAGI2_6, Q86UL8; [1]): 3.55
pKd (MPDZ_5, O75970; [1]): below the threshold
pKd (MPP6, Q9NZW5; [1]): 3.81
pKd (NHERF3_3, Q5T2W1; [1]): below the threshold
pKd (PCLO, Q9Y6V0; [1]): below the threshold
pKd (PDZRN4_1, Q6ZMN7; [1]): below the threshold
pKd (PTPN3, P26045; [1]): 4.13
pKd (RHPN1, Q8TCX5; [1]): below the threshold
pKd (TJP3_3, O95049; [1]): below the threshold

SSRTRRETQL [HPV16-E6_-2P, P03126]
pKd (APBA1_1, Q02410; [2]): below the threshold
pKd (ARHGAP21, Q5T5U3; [2]): 4.05
pKd (ARHGEF12, Q9NZN5-2; [2]): below the threshold
pKd (DFNB31_1, Q9P202; [2]): below the threshold
pKd (DLG1_1, Q12959; [2]): below the threshold
pKd (DLG3_1, Q92796; [2]): below the threshold
pKd (DLG3_3, Q92796; [2]): below the threshold
pKd (GORASP1, Q9BQQ3; [2]): below the threshold
pKd (GORASP2, Q9H8Y8; [2]): below the threshold
pKd (HTRA3, P83110; [2]): below the threshold
pKd (HTRA4, P83105; [2]): below the threshold
pKd (LIMK2, P53671; [2]): below the threshold
pKd (LNX1_1, Q8TBB1; [2]): below the threshold
pKd (LNX1_3, Q8TBB1; [2]): below the threshold
pKd (MAGI1_1, Q96QZ7; [2]): below the threshold
pKd (MAGI2_6, Q86UL8; [2]): below the threshold
pKd (MPDZ_5, O75970; [2]): below the threshold
pKd (MPP6, Q9NZW5; [2]): below the threshold
pKd (NHERF3_3, Q5T2W1; [2]): below the threshold
pKd (PCLO, Q9Y6V0; [2]): below the threshold
pKd (PDZRN4_1, Q6ZMN7; [2]): below the threshold
pKd (PTPN3, P26045; [2]): 3.92
pKd (RHPN1, Q8TCX5; [2]): below the threshold
pKd (TJP3_3, O95049; [2]): below the threshold

PYSESDDDWC [CACNA1A, O00555]
pKd (APBA1_1, Q02410; [1]): 3.48
pKd (ARHGAP21, Q5T5U3; [1]): 4.17
pKd (ARHGEF12, Q9NZN5-2; [1]): below the threshold
pKd (DFNB31_1, Q9P202; [1]): below the threshold
pKd (DLG1_1, Q12959; [1]): below the threshold
pKd (DLG3_1, Q92796; [1]): below the threshold
pKd (DLG3_3, Q92796; [1]): below the threshold
pKd (GORASP1, Q9BQQ3; [1]): below the threshold
pKd (GORASP2, Q9H8Y8; [1]): 3.67
pKd (HTRA3, P83110; [1]): 5.79
pKd (HTRA4, P83105; [1]): below the threshold
pKd (LIMK2, P53671; [1]): below the threshold
pKd (LNX1_1, Q8TBB1; [1]): below the threshold
pKd (LNX1_3, Q8TBB1; [1]): below the threshold
pKd (MAGI1_1, Q96QZ7; [1]): below the threshold
pKd (MAGI2_6, Q86UL8; [1]): 4.17
pKd (MPDZ_5, O75970; [1]): below the threshold
pKd (MPP6, Q9NZW5; [1]): below the threshold
pKd (NHERF3_3, Q5T2W1; [1]): below the threshold
pKd (PCLO, Q9Y6V0; [1]): below the threshold
pKd (PDZRN4_1, Q6ZMN7; [1]): below the threshold
pKd (PTPN3, P26045; [1]): 4.15
pKd (RHPN1, Q8TCX5; [1]): below the threshold
pKd (TJP3_3, O95049; [1]): 4.39
